Results published in article PMC3857177 (PLoS ONE, 2013).
Where a chain is given by its changes, count along the chain named.

T1: human Shrm2 SD2 domain (1427–1610), N-terminally labelled with Oregon Green 488 (human, UniProt Q13796 1427-1610, Oregon Green 488 (succinimidyl ester) on the N-terminus, labelling essentially 1:1)
T1 chain: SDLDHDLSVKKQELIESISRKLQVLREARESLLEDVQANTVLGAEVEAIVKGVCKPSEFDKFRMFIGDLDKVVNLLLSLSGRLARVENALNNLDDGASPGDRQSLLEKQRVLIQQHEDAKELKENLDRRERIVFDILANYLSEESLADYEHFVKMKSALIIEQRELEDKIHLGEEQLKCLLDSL

T2: human Rock1 707–946, 865EE866 to alanine (human, UniProt Q13464 707-946, 865EE866 alanine substitutions)
T2 construct: source: E. coli BL21(DE3) codon plus (RIPL), purified; not shown: His6, N-terminal, cleaved
T2 sequence (looked up): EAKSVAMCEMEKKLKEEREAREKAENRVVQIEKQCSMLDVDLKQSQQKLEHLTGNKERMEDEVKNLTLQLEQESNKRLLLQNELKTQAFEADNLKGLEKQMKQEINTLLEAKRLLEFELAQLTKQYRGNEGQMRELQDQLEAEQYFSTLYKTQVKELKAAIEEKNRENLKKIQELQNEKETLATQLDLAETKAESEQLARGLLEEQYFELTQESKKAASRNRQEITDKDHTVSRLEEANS

T3: human Rock1 707–946, wild type (human, UniProt Q13464 707-946)
T3 construct: also called wild-type Rock1 SBD; not shown: His6, N-terminal, cleaved
T3 sequence (looked up): T2 sequence (looked up) with A159E, A160E

T4: human Rock1 707–946, SBD^SER variant (human, UniProt Q13464 707-946, triple alanine mutation, 884EKE886)
T4 construct: source: E. coli BL21(DE3) codon plus (RIPL), purified; not shown: His6, N-terminal, cleaved
T4 sequence (looked up): T2 sequence (looked up) with A159E, A160E, E178A, K179A, E180A

T5: His6-tagged human Rock1 707–913 (human, UniProt Q13464 707-913)
T5 construct: source: E. coli BL21(DE3) codon plus (RIPL), purified; not shown: His6, N-terminal, kept
T5 sequence (looked up): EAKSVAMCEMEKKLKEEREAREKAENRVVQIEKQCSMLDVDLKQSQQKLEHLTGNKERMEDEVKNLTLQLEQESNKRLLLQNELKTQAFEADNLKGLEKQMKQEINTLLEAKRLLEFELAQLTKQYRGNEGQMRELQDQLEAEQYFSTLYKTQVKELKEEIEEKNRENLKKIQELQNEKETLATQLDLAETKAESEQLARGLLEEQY

B1: human Rock1 SBD (834–913), wild type (domain or fragment, UniProt Q13464 834-913, looked up)
chain: GNEGQMRELQDQLEAEQYFSTLYKTQVKELKEEIEEKNRENLKKIQELQNEKETLATQLDLAETKAESEQLARGLLEEQY
notes: PDB 4L2W holds the same limits with the SER mutation 884EKE886 to AAA; also called WT SBD; not shown: His6, N-terminal, cleaved
B2: His6-tagged human Rock1 834–913 (domain or fragment, UniProt Q13464 834-913, looked up)
chain: B1 chain
notes: PDB 4L2W holds the same limits with the SER mutation 884EKE886 to AAA; source: E. coli BL21(DE3) codon plus (RIPL), purified; not shown: His6, N-terminal, kept
B3: human Rock1 SBD (834–913) with the surface entropy reduction mutation (SBD^SER) (domain or fragment, UniProt Q13464 834-913, looked up)
chain: B1 chain with E51A, K52A, E53A
notes: A selenomethionine form was used for phasing only; also called Rock1 SBD^SER; SER mutant; not shown: His6, N-terminal, cleaved
B4: His6-tagged human Rock1 772–913 (domain or fragment, UniProt Q13464 772-913, looked up)
chain: LTLQLEQESNKRLLLQNELKTQAFEADNLKGLEKQMKQEINTLLEAKRLLEFELAQLTKQYRGNEGQMRELQDQLEAEQYFSTLYKTQVKELKEEIEEKNRENLKKIQELQNEKETLATQLDLAETKAESEQLARGLLEEQY
notes: source: E. coli BL21(DE3) codon plus (RIPL), purified; not shown: His6, N-terminal, kept
B5: human Rock1 707–946, wild type (domain or fragment)
chain: T2 sequence (looked up) with A159E, A160E
B6: human Shrm2 SD2 domain (1427–1610), untagged (domain or fragment, UniProt Q13796 1427-1610, looked up)
chain: T1 chain
notes: Shroom2 (Shrm2), human, Shrm Domain 2 (SD2), residues 1427-1610; Cloned into pET151/D-TOPO (His6 removable with TEV); called untagged in the pull-down; also called Shrm SD2; human Shroom2 SD2; source: E. coli BL21(DE3) Codon+(RILP), purified; not shown: His6, N-terminal, cleaved
B7: human Rock1 707–946, 900ESE902 to alanine (domain or fragment, UniProt Q13464 707-946, looked up)
chain: T2 sequence (looked up) with A159E, A160E, E194A, S195A, E196A
notes: source: E. coli BL21(DE3) codon plus (RIPL), purified; not shown: His6, N-terminal, cleaved
B8: human Shrm2 SD2 domain (1427–1610), N-terminally labelled with Oregon Green 488 (domain or fragment, UniProt Q13796 1427-1610, looked up)
chain: T1 chain
modifications: Oregon Green 488 (succinimidyl ester) on the N-terminus, labelling essentially 1:1
notes: Shroom2 (Shrm2), human, Shrm Domain 2 (SD2), residues 1427-1610; Same construct as m1, with the fluorophore; also called Shrm2 SD2-Oregon Green 488; Oregon-Green labeled human Shrm2 SD2 domain; source: E. coli BL21(DE3) Codon+(RILP), purified, then labelled

What was measured:
[1] = target: B8; test: fluorescence polarisation; fluorescence anisotropy; 20 nM (legends: 50 nM) N-terminally Oregon Green 488-labelled Shrm2 SD2, increasing concentrations of Rock1 SBD; 20 mM Hepes pH 7.4, 100 mM NaCl, 5% glycerol; single binding model; conditions: both partners purified
[2] = target: the molecule itself; test: cross-linking; 0.002% glutaraldehyde, 25 min, 26 µM protein; 25 mM HEPES pH 7.5, 8% glycerol, 500 mM NaCl, 5 mM β-ME; SDS-PAGE, Coomassie
[3] = target: T1, human Shrm2 SD2 domain (1427–1610), …; test: FP
[4] = target: B6; test: pull-down; 25 µg purified His-tagged Rock1 fragment on nickel beads, 2x molar excess of untagged Shrm2 SD2, 10 min room temperature; 2% glycerol, 100 mM NaCl, 7 mM imidazole, 1 mM β-mercaptoethanol, 20 mM Tris pH 8.0; SDS-PAGE, Coomassie; conditions: both partners purified
[5] = target: T2, human Rock1 707–946, 865EE866 to alanine; test: native gel or EMSA; 10 µM Rock1 707–946 (wild type or mutant) mixed with 10 µM human Shrm2 SD2, 20 min room temperature; 12% native PAGE at 4°C, Coomassie; conditions: both partners purified
[6] = target: T3, human Rock1 707–946, wild type; test: as above; conditions: both partners purified
[7] = target: B7; test: as above; conditions: both partners purified
[8] = target: T4, human Rock1 707–946, SBD^SER variant; test: as above; conditions: both partners purified
[9] = target: T5, His6-tagged human Rock1 707–913; test: pull-down; 25 µg purified His-tagged Rock1 fragment on nickel beads, 2x molar excess of untagged Shrm2 SD2, 10 min room temperature; 2% glycerol, 100 mM NaCl, 7 mM imidazole, 1 mM β-mercaptoethanol, 20 mM Tris pH 8.0; SDS-PAGE, Coomassie; conditions: both partners purified
[10] = target: T3, human Rock1 707–946, wild type; test: fluorescence polarisation; fluorescence anisotropy; 20 nM (legends: 50 nM) N-terminally Oregon Green 488-labelled Shrm2 SD2, increasing concentrations of Rock1 SBD; 20 mM Hepes pH 7.4, 100 mM NaCl, 5% glycerol; single binding model; conditions: both partners purified
[11] = target: human Rock1 707–946, 900ESE902 to alanine (human, UniProt Q13464 707-946, 900ESE902 alanine substitutions); test: FP

Binder: B1
- binding result [1]: binds
- stoichiometry N [2]: 2
- Kd [3]: 5.3 µM

Binder: B2
- binding result [4]: binds

Binder: B3
- stoichiometry N [2]: 2

Binder: B4
- binding result [4]: binds

Binder: B5
- Kd [3]: 1.7 µM

Binder: B6
- binding result [5]: binds
- binding result [6]: binds
- binding result [7]: binds
- binding result [8]: binds
- binding result [9]: binds

Binder: B7
- fold decrease in binding affinity against wild type [1]: ~5.5 fold

Binder: B8
- binding result [10]: binds
- Kd [11]: 9.3 µM
